PMC9352680, “A comprehensive thermodynamic model for RNA binding by the Saccharomyces cerevisiae Pumilio protein PUF4”

T1: PUF4 RNA-binding domain (Saccharomyces cerevisiae, UniProt P25339 537-888)
T1 sequence: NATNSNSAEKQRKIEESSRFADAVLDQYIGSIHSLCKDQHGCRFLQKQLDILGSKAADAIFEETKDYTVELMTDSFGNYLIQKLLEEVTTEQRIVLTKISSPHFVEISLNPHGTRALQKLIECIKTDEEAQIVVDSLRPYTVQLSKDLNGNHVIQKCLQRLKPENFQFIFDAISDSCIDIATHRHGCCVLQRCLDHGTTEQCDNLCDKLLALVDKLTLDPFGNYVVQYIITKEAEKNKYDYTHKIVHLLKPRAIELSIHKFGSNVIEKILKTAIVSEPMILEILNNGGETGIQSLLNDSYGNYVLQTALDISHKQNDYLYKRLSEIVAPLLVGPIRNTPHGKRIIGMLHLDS


Target: T1, PUF4 RNA-binding domain
Experiment: Mg; RNA-MaP; 20 mM Na-HEPES pH 7.4, 30 mM KOAc, 0.75 mM MgCl2, 0.1% Tween-20, 5% glycerol, 0.1 mg/mL BSA, 2 mM DTT; 25 C; 0.0125-409.6 nM protein
Conditions: tags: N-His6-TEV cleaved; C-SNAP kept, Cy3B-labelled; label: tethered on chip by stalled RNA polymerase

Row | Binder | Kd
1 | UCUCUUGCUAUAUAUUAUUUCUCUU (ssRNA) [Id_ii_S1_P4E.3_K4.2_C4.2_[C-2G]_[T-1C]_H4.2_A4.1_F4.1_T4.2_[G10T]] | 29.8 nM
2 | UCUCUUCAUGUAUAUUAGUUCUCUU (ssRNA) [Id_ii_S1_P4E.2_K4.1_C4.2_[T-1A]_H4.1_A4.1_F4.1_T4.2] | 0.326 nM
3 | UCUCUUCCUGUAUAUUAUAUCUCUU (ssRNA) [Id_ii_S1_P4E.2_K4.1_C4.2_[T-1C]_H4.1_A4.1_F4.1_T4.2_[G10T]_[T11A]] | 0.96 nM
4 | UCUCUUCCUGUAUAUUAUUUCUCUU (ssRNA) [Id_ii_S1_P4E.2_K4.1_C4.2_[T-1C]_H4.1_A4.1_F4.1_T4.2_[G10T]] | 0.724 nM
5 | UCUCUUGCUAUAUAUUAUAUCUCUU (ssRNA) [Id_ii_S1_P4E.3_K4.2_C4.2_[C-2G]_[T-1C]_H4.2_A4.1_F4.1_T4.2_[G10T]_[T11A]] | 57.3 nM
6 | UCUCUUGCUAUAUAUUACGUCUCUU (ssRNA) [Id_ii_S1_P4E.3_K4.2_C4.2_[C-2G]_[T-1C]_H4.2_A4.1_F4.1_T4.2_[G10C]_[T11G]] | 56.3 nM
7 | UCUCUUAUUGUAUAUUAACUCUCUU (ssRNA) [Id_ii_S1_P4E.2_K4.1_C4.2_[C-2A]_H4.1_A4.1_F4.1_T4.2_[G10A]_[T11C]] | 1.01 nM
8 | UCUCUUCUUGUAUAUUAUGUCUCUU (ssRNA) [Id_ii_S1_P4E.2_K4.1_C4.2_H4.1_A4.1_F4.1_T4.2_[G10T]_[T11G]] | 0.808 nM
9 | UCUCUUUGUCCAUUAUCUCUU (ssRNA) [Ib_S1_P4E.1_K4.1_C4.1_H4.1_[A4C]_A4.1_[T5C]_F4.1_T4.1] | 20.5 nM
10 | UCUCUUAUUGUAUAUUAUGUCUCUU (ssRNA) [Id_ii_S1_P4E.2_K4.1_C4.2_[C-2A]_H4.1_A4.1_F4.1_T4.2_[G10T]_[T11G]] | 1.27 nM
11 | UCUCUUCCUGUAUAUUAAGUCUCUU (ssRNA) [Id_ii_S1_P4E.2_K4.1_C4.2_[T-1C]_H4.1_A4.1_F4.1_T4.2_[G10A]_[T11G]] | 1.9 nM
12 | UCUCUUUGCAUAGUAUCUCUU (ssRNA) [Ib_S1_P4E.1_K4.1_C4.1_H4.1_[T3C]_A4.1_[T7G]_F4.1_T4.1] | 647 nM
13 | UCUCUUUGCAUUUUAUCUCUU (ssRNA) [Ib_S1_P4E.1_K4.1_C4.1_H4.1_[T3C]_A4.1_[A6T]_F4.1_T4.1] | 1640 nM
14 | UCUCUUCAUGUAUAUUACUUCUCUU (ssRNA) [Id_ii_S1_P4E.2_K4.1_C4.2_[T-1A]_H4.1_A4.1_F4.1_T4.2_[G10C]] | 1.07 nM
15 | UCUCUUCGUGUAUAUUAAGUCUCUU (ssRNA) [Id_ii_S1_P4E.2_K4.1_C4.2_[T-1G]_H4.1_A4.1_F4.1_T4.2_[G10A]_[T11G]] | 3.06 nM
16 | UCUCUUCGUGUAUAUUAGGUCUCUU (ssRNA) [Id_ii_S1_P4E.2_K4.1_C4.2_[T-1G]_H4.1_A4.1_F4.1_T4.2_[T11G]] | 0.943 nM

Row | Binder | Kd
17 | UCUCUUCUUGUAUAUUACCUCUCUU (ssRNA) [Id_ii_S1_P4E.2_K4.1_C4.2_H4.1_A4.1_F4.1_T4.2_[G10C]_[T11C]] | 0.733 nM
18 | UCUCUUGCUAUAUAUUACCUCUCUU (ssRNA) [Id_ii_S1_P4E.3_K4.2_C4.2_[C-2G]_[T-1C]_H4.2_A4.1_F4.1_T4.2_[G10C]_[T11C]] | 61.4 nM
19 | UCUCUUCCUGUAUAUUAGUUCUCUU (ssRNA) [Id_ii_S1_P4E.2_K4.1_C4.2_[T-1C]_H4.1_A4.1_F4.1_T4.2] | 0.262 nM
20 | UCUCUUCAUGUAUAUUAAGUCUCUU (ssRNA) [Id_ii_S1_P4E.2_K4.1_C4.2_[T-1A]_H4.1_A4.1_F4.1_T4.2_[G10A]_[T11G]] | 2.41 nM
21 | UCUCUUUGUCGAUUAUCUCUU (ssRNA) [Ib_S1_P4E.1_K4.1_C4.1_H4.1_[A4C]_A4.1_[T5G]_F4.1_T4.1] | 336 nM
22 | UCUCUUCCUGUAUAUUACUUCUCUU (ssRNA) [Id_ii_S1_P4E.2_K4.1_C4.2_[T-1C]_H4.1_A4.1_F4.1_T4.2_[G10C]] | 0.91 nM
23 | UCUCUUUGUCAAUUAUCUCUU (ssRNA) [Ib_S1_P4E.1_K4.1_C4.1_H4.1_[A4C]_A4.1_[T5A]_F4.1_T4.1] | 134 nM
24 | UCUCUUCUUGUAUAUUAGCUCUCUU (ssRNA) [Id_ii_S1_P4E.2_K4.1_C4.2_H4.1_A4.1_F4.1_T4.2_[T11C]] | 0.287 nM
25 | UCUCUUCAUGUAUAUUAUCUCUCUU (ssRNA) [Id_ii_S1_P4E.2_K4.1_C4.2_[T-1A]_H4.1_A4.1_F4.1_T4.2_[G10T]_[T11C]] | 0.967 nM
26 | UCUCUUCGUGUAUAUUAUCUCUCUU (ssRNA) [Id_ii_S1_P4E.2_K4.1_C4.2_[T-1G]_H4.1_A4.1_F4.1_T4.2_[G10T]_[T11C]] | 0.874 nM
27 | UCUCUUCUUGUAUAUUAGUUCUCUU (ssRNA) [If_S1_P4E.2_K4.1_C4.2_H4.1_A4.1_F4.1_T4.2] | 0.286 nM
28 | UCUCUUAUUGUAUAUUAUAUCUCUU (ssRNA) [Id_ii_S1_P4E.2_K4.1_C4.2_[C-2A]_H4.1_A4.1_F4.1_T4.2_[G10T]_[T11A]] | 1.12 nM
29 | UCUCUUCCUGUAUAUUAUGUCUCUU (ssRNA) [Id_ii_S1_P4E.2_K4.1_C4.2_[T-1C]_H4.1_A4.1_F4.1_T4.2_[G10T]_[T11G]] | 1.01 nM
30 | UCUCUUGCUAUAUAUUAUGUCUCUU (ssRNA) [Id_ii_S1_P4E.3_K4.2_C4.2_[C-2G]_[T-1C]_H4.2_A4.1_F4.1_T4.2_[G10T]_[T11G]] | 42 nM
31 | UCUCUUCUUGUAUAUUAAAUCUCUU (ssRNA) [Id_ii_S1_P4E.2_K4.1_C4.2_H4.1_A4.1_F4.1_T4.2_[G10A]_[T11A]] | 0.971 nM
